The values that follow come from US20240368301A1 (HANGZHOU JIUYUAN GENE ENGINEERING, published 2024).

Assay [1] addresses T1, SIRPα V1-his (ACRO, Cat #SIA-H5225) (human, UniProt P78324 31-370).
T1 construct: not shown: His tag
Put plainly: competition ELISA; coated SIRPα-V1-his, biotin-CD47 as competitor. The procedure: 100 μL of 2.5 μg/mL of recombinant SIRPα-V1-his and SIRPα-V2-his were coated overnight at 4° C. in Maxisorp ELISA 96-well plates. […] […] VSWFSP (SEQ ID NO: 40)] and incubated in the microtiter plate for 1 h at 37° C. After washing, each well was added with Streptavdin-HRP (Thermo, Cat #434323), substrate TMB (Beyotime, Cat #P0209-100 mL), and read by an enzyme marker.
On the technique in general: An ELISA detects its analyte on a solid surface through an enzyme-linked reagent.

The target in assay [2] is T2, cynomolgus macaques SIRPα-his (ACRO, Cat #SIA-C52H7) (cynomolgus macaque, UniProt A0A2K5VYQ9 31-369).
T2 construct: also called Monkey SIRPα; cynomolgus macaque SIRPα
T2 sequence: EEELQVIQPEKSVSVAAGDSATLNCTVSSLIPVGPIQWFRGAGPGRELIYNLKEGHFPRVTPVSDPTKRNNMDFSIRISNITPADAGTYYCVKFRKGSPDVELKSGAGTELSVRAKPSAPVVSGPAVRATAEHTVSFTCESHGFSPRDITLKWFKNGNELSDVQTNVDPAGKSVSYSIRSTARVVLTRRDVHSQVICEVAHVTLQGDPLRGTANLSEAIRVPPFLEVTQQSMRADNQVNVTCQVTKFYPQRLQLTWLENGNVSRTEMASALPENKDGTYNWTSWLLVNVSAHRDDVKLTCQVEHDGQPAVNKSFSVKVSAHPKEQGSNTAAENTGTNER
Put plainly: BLI (Octet RED 96), His-tagged antigen on Ni-NTA sensor, antibody in solution. The method, then: (§1) SIRPα V1-his (ACRO, Cat #SIA-H5225), SIRPα V2-his (made by transient transfection of HEK293F cells according to SEQ ID NO:38 sequence), SIRPβ-his (Novoprotein, Cat #CS93), SIRPγ-his (Sino Biological, Cat #11828-H08H) or cynomolgus macaques SIRPα-his (ACRO, Cat #SIA-C52H7) at 5 μg/mL was loaded to a Ni-NTA biosensor for 600 s. […] The data were fitted to calculate the affinity.
On the technique in general: In BLI a coated tip is dipped into the sample, and binding shifts an interference pattern.

The target of assay [3] is T3, SIRPβ-his (Novoprotein, Cat #CS93) (UniProt O00241 30-371, limits assumed). The assay is described as above. The procedure:
as §1

The target of assay [4] is T1, SIRPα V1-his (ACRO, Cat #SIA-H5225). The description is as above. The procedure: as §1
The target in assay [5] is SIRPγ-his (Sino Biological, Cat #11828-H08H) (UniProt Q9P1W8 29-360). The assay is described as above. The procedure: as §1
SIRPγ-his (Sino Biological, Cat #11828-H08H), sequence (Q9P1W8 29-360 limits assumed): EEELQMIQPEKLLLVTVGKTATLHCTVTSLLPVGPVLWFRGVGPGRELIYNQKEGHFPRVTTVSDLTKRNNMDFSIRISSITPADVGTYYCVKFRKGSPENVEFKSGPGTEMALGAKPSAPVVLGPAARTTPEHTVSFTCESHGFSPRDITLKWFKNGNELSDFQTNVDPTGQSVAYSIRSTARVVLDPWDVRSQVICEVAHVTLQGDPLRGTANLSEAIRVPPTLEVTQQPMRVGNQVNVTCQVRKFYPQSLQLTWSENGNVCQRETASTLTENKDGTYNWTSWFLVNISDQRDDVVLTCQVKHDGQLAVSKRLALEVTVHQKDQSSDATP
Assay [6] addresses T4, SIRPα-V1 on 293T-SIRPα-V1 cells (human, UniProt P78324 31-504).
T4 construct: Stably transfected cell line
Put plainly: FACS titration on 293T-SIRPα-V1 cells, goat anti-hIgG-AF488 (panel SIRPα-V1). The procedure:
(§2) 2×10⁵ per well of stable transfer construct cell lines 293T-SIRPα-V1 (SEQ ID NO: 2), CHOZN-SIRPα-V2 (SEQ ID NO: 38), and CHOZN-SIRPα-V8 (SEQ ID NO: 39) in logarithmic phase were dispended in 96-well U-shaped culture plates, […] After washing, the cells were incubated with 0.2 μg of goat anti-hIgG-AF488 for 30 min at 4° C., then resuspended in 50 μL of DPBS/1% FBS and analyzed by flow cytometry with FlowJo V10 and GraphPad Prism6 software.

Assay [7] concerns the target T5, SIRPα-V8 on stably transfected cells (Homo sapiens (Human), UniProt P78324 31-504).
T5 construct: also called CHOZN-SIRPα-V8; 293T-SIRPα-V8
Put plainly: FACS on cells carrying the target. The procedure: (§3) After washing, cells were stained with 0.2 μg goat anti-hIgG Fc-AF488 (Jackson ImmunoResearch, Cat #109-546-170) at 4° C. for 30 min. After washing again, cells were resuspended in 50 μL of DPBS/1% FBS and analyzed by FlowJo V10 and GraphPad Prism6 software.

In assay [8] the target is T6, SIRPα-V2 on CHOZN-SIRPα-V2 cells (Homo sapiens (Human), UniProt P78324 31-504). Kind of assay: FACS on cells carrying the target. The procedure:
as §3

In assay [9] the target is T4, SIRPα-V1 on 293T-SIRPα-V1 cells. Kind of assay: FACS on cells carrying the target. The procedure: as §3
Assay [10] shares this target. Put plainly: competition FACS; 293T-SIRPα-V1 cells, FITC-labelled CD47 as competitor. The procedure:
(§4) After washing, cells were analyzed by FlowJo V10 and GraphPad Prism6 software.

In assay [11] the target is T3, SIRPβ-his (Novoprotein, Cat #CS93). Kind of assay: ELISA.
Assay [12] addresses T1, SIRPα V1-his (ACRO, Cat #SIA-H5225). Kind of assay: ELISA.
The target in assay [13] is T6, SIRPα-V2 on CHOZN-SIRPα-V2 cells. Put plainly: FACS titration on CHOZN-SIRPα-V2 cells, goat anti-hIgG Fc-AF488 (panel SIRPα-V2). The method, then:
as §3

Assay [14] has as its target T1, SIRPα V1-his (ACRO, Cat #SIA-H5225). Kind of assay: SPR (Biacore), antibody captured by anti-Fc on CM5, 50 nM SIRPα V1-his injected, 1:1 model. The procedure:
(§5) Using the Biacore analysis system, activators were prepared by mixing 400 mM EDC and 100 mM NHS and activated with a CM5 sensor chip at a flow rate of 10 μL/min for 420 s. Anti-Fc antibody at 30 μg/mL dissolved in 10 mM NaAc (pH 4.5) was injected into the channel at a flow rate of 10 μL/min and then closed with 1 M ethanolamine-HCl at a flow rate of 10 μL/min for 420 s. […] All experimental data were fitted using a 1:1 binding model.
Background: SPR reads the build-up and loss of mass on a sensor chip optically.

Assay [15] concerns the target T6, SIRPα-V2 on CHOZN-SIRPα-V2 cells. Put plainly: competition FACS; CHOZN-SIRPα-V2 cells, FITC-labelled CD47 as competitor. The procedure: as §4
Assay [16] deals with T5, SIRPα-V8 on stably transfected cells. Put plainly: FACS titration on CHOZN-SIRPα-V8 cells, goat anti-hIgG-AF488 (panel SIRPα-V8). The procedure:
as §2

In assay [17] the target is T1, SIRPα V1-his (ACRO, Cat #SIA-H5225). Kind of assay: SPR (Biacore), antibody captured by anti-Fc on CM5, 50 nM SIRPα V1-his injected. The method, then:
as §5

T4 sequence (P78324 31-504): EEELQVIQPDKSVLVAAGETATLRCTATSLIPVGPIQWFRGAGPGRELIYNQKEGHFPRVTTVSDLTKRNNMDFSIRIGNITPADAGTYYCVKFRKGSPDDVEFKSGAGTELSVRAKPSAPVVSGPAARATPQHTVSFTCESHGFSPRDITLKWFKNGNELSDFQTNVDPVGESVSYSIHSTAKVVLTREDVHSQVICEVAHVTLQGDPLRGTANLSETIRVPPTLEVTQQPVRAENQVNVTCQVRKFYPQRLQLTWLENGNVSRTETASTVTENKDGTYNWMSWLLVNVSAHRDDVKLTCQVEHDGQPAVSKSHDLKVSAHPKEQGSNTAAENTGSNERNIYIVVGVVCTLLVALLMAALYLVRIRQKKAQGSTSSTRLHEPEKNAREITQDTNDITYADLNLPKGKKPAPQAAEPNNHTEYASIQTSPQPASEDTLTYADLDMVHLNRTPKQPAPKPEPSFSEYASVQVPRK
T6 sequence (P78324 other isoform, or with tags, fused parts or gaps limits assumed): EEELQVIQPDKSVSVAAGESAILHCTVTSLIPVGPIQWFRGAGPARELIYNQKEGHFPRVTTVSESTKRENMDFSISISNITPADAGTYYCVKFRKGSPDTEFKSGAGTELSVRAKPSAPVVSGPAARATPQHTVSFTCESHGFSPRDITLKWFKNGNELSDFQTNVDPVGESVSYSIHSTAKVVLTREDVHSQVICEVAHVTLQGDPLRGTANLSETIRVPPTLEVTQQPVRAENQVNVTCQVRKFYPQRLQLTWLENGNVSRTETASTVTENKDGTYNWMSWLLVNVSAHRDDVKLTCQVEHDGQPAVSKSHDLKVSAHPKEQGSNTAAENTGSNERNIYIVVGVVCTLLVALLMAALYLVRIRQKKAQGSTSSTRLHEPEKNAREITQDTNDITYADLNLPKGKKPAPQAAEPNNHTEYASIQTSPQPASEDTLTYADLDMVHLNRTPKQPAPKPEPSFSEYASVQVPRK
T1 sequence (P78324 31-370 limits assumed): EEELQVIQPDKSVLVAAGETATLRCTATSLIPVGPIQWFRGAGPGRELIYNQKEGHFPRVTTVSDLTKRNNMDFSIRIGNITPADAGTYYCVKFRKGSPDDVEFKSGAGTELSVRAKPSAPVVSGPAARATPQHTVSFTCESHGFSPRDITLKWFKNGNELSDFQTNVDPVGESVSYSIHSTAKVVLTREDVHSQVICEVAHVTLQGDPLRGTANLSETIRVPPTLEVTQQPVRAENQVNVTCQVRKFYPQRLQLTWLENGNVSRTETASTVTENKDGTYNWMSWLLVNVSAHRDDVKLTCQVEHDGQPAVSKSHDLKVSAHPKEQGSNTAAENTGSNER
T3 sequence (O00241 30-371 limits assumed): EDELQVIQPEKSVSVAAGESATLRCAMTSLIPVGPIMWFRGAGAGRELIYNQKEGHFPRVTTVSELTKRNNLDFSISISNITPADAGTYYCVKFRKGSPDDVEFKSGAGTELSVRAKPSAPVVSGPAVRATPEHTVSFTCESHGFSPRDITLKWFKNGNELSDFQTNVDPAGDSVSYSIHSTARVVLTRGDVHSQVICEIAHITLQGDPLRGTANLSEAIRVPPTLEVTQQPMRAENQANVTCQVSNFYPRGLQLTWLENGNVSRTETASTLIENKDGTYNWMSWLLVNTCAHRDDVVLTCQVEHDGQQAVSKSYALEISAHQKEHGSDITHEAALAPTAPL
T5 sequence (P78324 other isoform, or with tags, fused parts or gaps limits assumed): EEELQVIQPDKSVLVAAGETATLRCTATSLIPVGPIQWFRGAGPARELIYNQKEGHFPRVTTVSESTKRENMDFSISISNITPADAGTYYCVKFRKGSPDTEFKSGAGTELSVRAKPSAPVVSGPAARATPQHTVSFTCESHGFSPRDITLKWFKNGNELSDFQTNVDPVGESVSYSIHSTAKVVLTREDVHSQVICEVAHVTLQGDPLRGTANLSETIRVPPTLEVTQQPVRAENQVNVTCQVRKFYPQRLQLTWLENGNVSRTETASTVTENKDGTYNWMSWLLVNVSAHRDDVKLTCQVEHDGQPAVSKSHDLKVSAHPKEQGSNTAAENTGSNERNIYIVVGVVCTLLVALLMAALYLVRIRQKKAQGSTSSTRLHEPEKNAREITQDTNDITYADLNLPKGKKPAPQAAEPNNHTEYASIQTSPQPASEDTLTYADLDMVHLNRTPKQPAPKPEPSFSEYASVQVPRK

B1: AD4-12 (antibody, V domains shown)
VH: EVQLEESGPGLVAPSQSLSITCTVSGFSLTGYGVNWVRQPPGKGLEWLGIIWGDGSTDYNSALKSRLSISKDNSKSQVFLKMNSLQSDDTARYYCARAGKMDYWGQGTSVTVSS
VL: DIVLTQSPASLAVSLGQGATISCRASESVDSYGNSFMHWYQQKPGQPPKPLIYLASNLESGVPARFSGSGSRTDFTLTIDPVEADDAATYYCQQNNEYPWTFGGGTKLEIK
notes: Mouse variable domains joined to human kappa and human IgG1 constant regions (wild type = AD4-12-G1, L234A/L235A = AD4-12-G1lala); also called AD4-12-G1; AD4-12-G1lala
On to B1, for which the IC50 (usually the concentration at which inhibition is half-maximal) in assay [1] came to 5260 pM; in assay [10], 1740 pM; in assay [15], 6420 pM. Further, the Kd (commonly the equilibrium constant for the complex coming apart) worked out at 430 pM in assay [2]; 35.3 pM in assay [3]; 11.1 pM in assay [4]; 1030 pM in [5]; 1470 pM in assay [14]. Besides, the koff (in general, the first-order rate constant of dissociation) stood at 0.000498 s⁻¹ in assay [2]; 3.21e-05 s⁻¹ in assay [3]; 1.16e-05 s⁻¹ in assay [4]; 0.000731 s⁻¹ in [5]; 0.00113 s⁻¹ in assay [14]. In addition, the kon (usually the second-order rate constant of association) in [2] worked out at 1.16e+06 M⁻¹ s⁻¹; in [3], 909000 M⁻¹ s⁻¹; in assay [4] it was 1.05e+06 M⁻¹ s⁻¹; in [5] it was 709000 M⁻¹ s⁻¹; in assay [14] it was 770000 M⁻¹ s⁻¹. The 50% effective concentration (EC50 (read off the curve)) (usually the concentration needed to bring the measured effect to its halfway point) was around 5000 pM in assay [6], around 4000 pM in assay [13] and around 2000 pM in assay [16]. The EC50 – broadly, the midpoint of the concentration-response curve – in [7] turned out to be 407 pM; in [8] it was 245 pM; in [9], 615 pM; in [11], 271 pM; in [12] it was 48.8 pM.

B2: Z2 (antibody, IgG1, V domains shown)
VH: QVQLQESGPGLVKPSQTLSLTCTVSGFSLTGYGVNWIRQPPGKGLEWIGIIWGDGSTDYNSALKSRVTISVDTSKNQVFLKLSSVTAADTAVYYCARAGKMDYWGQGTTVTVSS
VL: DIVLTQSPASLAVSPGQRATITCRASESVDSYGNSFMHWYQQKPGQPPKLLIYLASNLESGVPARFSGSGSRTDFTLTINPVEANDAANYYCQQNNEYPWTFGGGTKVEIK
notes: also called humanized variant Z2
As to B2, in assay [17], the binding result is recorded as “binds”.
